The values below come from the supplement of paper PMC10567573.

Sequences and labels used below:
B1: KCNAB2 (parent)
chain: IPPYSRASLKGYQWLKDKILSEEG
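Also: lentivirally expressed fusions sorted by FACS into six bins by GFP to DsRed ratio, PSI derived from sequencing read proportions per bin multiplied by bin number.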

The data set covers variants of B1. Nature of the data set: protein stability index of a GFP-peptide fusion (GPS, HEK-293T) (PSI 1-6); higher = more stable. The note with it: c terminus: a fixed tail appended.
On to IPPYSRAPLKGYQWLKDKILSEEG [S8P], for which the protein stability index came to 2.64.

On to IPPYSRAHLKGYQWLKDKILSEEG [S8H], for which the protein stability index worked out at 2.97. The figure for IPPYSRAQLKGYQWLKDKILSEEG [S8Q] is 2.72; for IPPYSRANLKGYQWLKDKILSEEG [S8N] it is 2.53; for IPPYSRAELKGYQWLKDKILSEEG [S8E] it is 1.31. Turning to IPPYSRAGLKGYQWLKDKILSEEG [S8G], the protein stability index came out at 1.96.

On to IPPYSRAFLKGYQWLKDKILSEEG [S8F], for which the protein stability index worked out at 2.21.

As to IPPYSRAILKGYQWLKDKILSEEG [S8I], the protein stability index was found to be 1.58. The figure for IPPYSRASLKGYQWLKDKIGSEEG [L20G] is 2.19; for IPPYSRASLKGYQWLKDKIQSEEG [L20Q] it is 2.8; for IPPYSRASLKGYQWLKDKIPSEEG [L20P] it is 3.27. With IPPYSRASLKGYQWLKDKIISEEG [L20I], the protein stability index was 2.29. For the variant IPPYSRASLKGYQWLKDKICSEEG [L20C], the protein stability index worked out at 2.63. For IEPYSRASLKGYQWLKDKILSEEG [P2E], the protein stability index stood at 2.87. In the case of IFPYSRASLKGYQWLKDKILSEEG [P2F], the protein stability index stood at 2.2.

As to ICPYSRASLKGYQWLKDKILSEEG [P2C], the protein stability index came to 1.88. In the case of ITPYSRASLKGYQWLKDKILSEEG [P2T], the protein stability index was 1.62. Turning to IVPYSRASLKGYQWLKDKILSEEG [P2V], the protein stability index amounted to 3.44. Take IKPYSRASLKGYQWLKDKILSEEG [P2K]: the protein stability index turned out to be 2.02.

As for IPPYSRASLKGYQRLKDKILSEEG [W14R], the protein stability index stood at 3.73. As for IPPYSRASLKGYQKLKDKILSEEG [W14K], the protein stability index came out at 3.65. Consider IPPYSRASLKGYQVLKDKILSEEG [W14V], for which the protein stability index came to 3.6. Consider IPPYSRASLKGYQALKDKILSEEG [W14A], for which the protein stability index was determined as 3.76. IPPYSRASLKGYQPLKDKILSEEG [W14P]: the protein stability index worked out at 3.97. With IPPYSRASLKGYQGLKDKILSEEG [W14G], the protein stability index worked out at 4.07. The figure for IPPYSRNSLKGYQWLKDKILSEEG [A7N] is 2.22. The figure for IPPYSRESLKGYQWLKDKILSEEG [A7E] is 2.86. Turning to IPPYSRFSLKGYQWLKDKILSEEG [A7F], the protein stability index was found to be 2.23. Regarding IPPYSRYSLKGYQWLKDKILSEEG [A7Y], the protein stability index came to 1.46. Regarding IPPYSRPSLKGYQWLKDKILSEEG [A7P], the protein stability index is 2.45. Turning to IPPYSRLSLKGYQWLKDKILSEEG [A7L], the protein stability index worked out at 3.23. Regarding IPPYSRASLKGYKWLKDKILSEEG [Q13K], the protein stability index amounted to 1.74. As for IPPYSRASLKGYGWLKDKILSEEG [Q13G], the protein stability index amounted to 1.93. In the case of IPPYSRASLKGYPWLKDKILSEEG [Q13P], the protein stability index is 2.03. As to IPPYSRASLKGYSWLKDKILSEEG [Q13S], the protein stability index was 2.95. As to IPPYSRASLKGYLWLKDKILSEEG [Q13L], the protein stability index was found to be 1.16. The figure for IPPYSRASLKGYQWLKDKILREEG [S21R] is 1.68; for IPPYSRASLKGYQWLKDKILHEEG [S21H] it is 2.12. For the variant IPPYSRASLKGYQWLKDKILWEEG [S21W], the protein stability index came to 3.22. The figure for IPPYSRASLKGYQWLKDKILVEEG [S21V] is 1.67; for IPPYSRASLKGYQWLKDKILQEEG [S21Q] it is 3.31; for IPPYSRASLKGYQWLKDKILNEEG [S21N] it is 2.02. For the variant IPPYSRASLKGYQWLKDKILLEEG [S21L], the protein stability index is 2.19. The figure for IPPYSRASLKGYQWLKDKILTEEG [S21T] is 2.31. For the variant IPPYSRASLKGYQWLKDKILFEEG [S21F], the protein stability index is 2.28. The figure for IPPYSRASLKGYQWLKDKILMEEG [S21M] is 2.43; for MPPYSRASLKGYQWLKDKILSEEG [I1M] it is 2.19.

As for LPPYSRASLKGYQWLKDKILSEEG [I1L], the protein stability index came to 2.08.

As for CPPYSRASLKGYQWLKDKILSEEG [I1C], the protein stability index came to 2.43.

On to HPPYSRASLKGYQWLKDKILSEEG [I1H], for which the protein stability index was determined as 2.59. The figure for IPPYSRASLKGQQWLKDKILSEEG [Y12Q] is 3.18; for IPPYSRASLKGEQWLKDKILSEEG [Y12E] it is 3.87. As to IPPYSRASLKGAQWLKDKILSEEG [Y12A], the protein stability index came to 3.34. On to IPPYSRASLKGLQWLKDKILSEEG [Y12L], for which the protein stability index is 2.51. The figure for IPPYSRASLKGCQWLKDKILSEEG [Y12C] is 3.04; for IPPYSRASLKGVQWLKDKILSEEG [Y12V] it is 2.71; for IPPYSRASLKGPQWLKDKILSEEG [Y12P] it is 3.17. On to IPPYSRASLKGKQWLKDKILSEEG [Y12K], for which the protein stability index came to 4.35.

For IPPYSRASLKGYQWLKDKILSTEG [E22T], the protein stability index was determined as 1.97. Regarding IPPYSRASLKGYQWLKDKILSSEG [E22S], the protein stability index was found to be 2.08.

Consider IPPYSRASLKGYQWLKDKILSPEG [E22P], for which the protein stability index is 2.48. In the case of IPPYSRASLKGYQWLKDKILSWEG [E22W], the protein stability index is 2.74. For the variant IPPYSRASLKGYQWLKDKILSREG [E22R], the protein stability index was found to be 1.62. For IPPKSRASLKGYQWLKDKILSEEG [Y4K], the protein stability index was found to be 2.77. As for IPPNSRASLKGYQWLKDKILSEEG [Y4N], the protein stability index amounted to 3.1. On to IPPDSRASLKGYQWLKDKILSEEG [Y4D], for which the protein stability index worked out at 4.41. For IPPTSRASLKGYQWLKDKILSEEG [Y4T], the protein stability index is 2.33. With IPPWSRASLKGYQWLKDKILSEEG [Y4W], the protein stability index amounted to 1.12. Regarding IPPRSRASLKGYQWLKDKILSEEG [Y4R], the protein stability index is 2.35. IPPSSRASLKGYQWLKDKILSEEG [Y4S]: the protein stability index amounted to 2.92. The figure for IPPYSRASLKGYQWLKGKILSEEG [D17G] is 2.03; for IPPYSRASLKGYQWLKWKILSEEG [D17W] it is 1.72; for IPPYSRASLKGYQWLKLKILSEEG [D17L] it is 1.93. With IPPYSRASLKGYQWLKCKILSEEG [D17C], the protein stability index was 1.3. As for IPPYSRASLKGYQWLKMKILSEEG [D17M], the protein stability index worked out at 1.57. The figure for IPPYSRASLKGYQWLKYKILSEEG [D17Y] is 1.8. For the variant IPPYSRASLKGYQWLKDKILSEEA [G24A], the protein stability index stood at 2.31.

Turning to IPPYSRASLKGYQWLKDKILSEEC [G24C], the protein stability index came to 2.06. Take IPPYSRASLKGYQWLKDKILSEEH [G24H]: the protein stability index came out at 2.09.

With IPPYSRASLKGYQWLKDKILSEED [G24D], the protein stability index came to 3.48. IPPYSRASLKGYQWLKDKILSEER [G24R]: the protein stability index turned out to be 1.47. As for IPPYSRASLKGYQWLKDKILSEEP [G24P], the protein stability index is 1.95. For IPPYSRASLKGYQWLKDKILSEES [G24S], the protein stability index was determined as 2.49. For the variant IPPYSRASLKGYQWLKDKILSEEM [G24M], the protein stability index is 2.56. For the variant IPPYSRASLKGYQWLWDKILSEEG [K16W], the protein stability index came to 2.29.

With IPPYSRASLKGYQWLCDKILSEEG [K16C], the protein stability index turned out to be 3.16. For the variant IPPYSRASLKGYQWLEDKILSEEG [K16E], the protein stability index was 2.19. Take IPPYSRASLKGYQWLVDKILSEEG [K16V]: the protein stability index came out at 2.08. Take IPPYSRASLKGYQWLRDKILSEEG [K16R]: the protein stability index amounted to 3.2. The figure for IPPYSRASLKGYQWLNDKILSEEG [K16N] is 3.29; for IPPYSRASLKGYQWLMDKILSEEG [K16M] it is 1.71. The figure for IPPYSRASLKGYQWLQDKILSEEG [K16Q] is 2.31. On to IPPYSGASLKGYQWLKDKILSEEG [R6G], for which the protein stability index was 2.53. As to IPPYSNASLKGYQWLKDKILSEEG [R6N], the protein stability index stood at 2.74.
